Measurements: patent US20020081617A1, “Fluorescence and FRET based assays for biomolecules on beads” (priority 2000, published 2002)
Several values for one entry are separate records, joined by “and”; a condition that tells them apart may be missing. Equal values may be shown once. One block for each molecule: values may come before it.

How the values were obtained:
[1] = molecular target: streptavidin on 6.2 µm streptavidin-coated beads (UniProt P22629); assay: centrifugation assay with spectrofluorimetry and flow cytometry; biotinylated peptide on streptavidin-coated beads (binding through biotin)
[2] = molecular target: non-biotinylated fluorescent 5-FLAG peptide (soluble); assay: centrifugation assay, spectrofluorimetry of residual supernatants; soluble fluorescent FLAG peptide on M2-bearing beads
[3] = molecular target: streptavidin coated beads (Streptomyces avidinii, UniProt P22629); assay: Binding of biotinylated ligands to streptavidin-coated beads (centrifugation assays); settings: read-out: binding affinity (Kd) to streptavidin coated beads
Method: Binding analysis of biotinylated biomolecules to streptavidin-bearing beads were performed. Centrifugation assays using paired spectrofluorimetric and flow cytometric analysis were carried out to compare and corroborate the flow cytometric data against the traditional spectroflurometric measurements.
The flow cytometric analysis used a Becton-Dickinson FACScan flow cytometer obtained from Sunnyvale, Calif. that interfaced to a Power PC Macintosh using the CellQuest software package. The FACScan is equipped with a 15 mW air-cooled argon ion laser. The laser output is fixed at 488 nm. It has been shown that the mean of the histogram is the quantity relevant to binding capacity. The average fluorescence of a single bead is converted to the number of fluorophores per bead on the basis of flow cytometric calibration beads obtained from Quantum 825 Flow Cytometry Standards Corporation, San Juan, PR. […] [formula]
MCFLb mean channel fluorescence are the means of the histograms of the bound ligand Lb, corrected for nonspecific binding and standard calibration beads referred to as std, observed at similar detection settings. MESF stands for mean equivalent of soluble fluorophores and is the number of fluorescein molecules whose emission intensity is equal to MCFstd on each bead.
The magnitude of bound sites per bead were determined from centrifugation assays.

streptavidin = streptavidin (Streptomyces avidinii, UniProt P22629); assay: Ostrich quenching of fluorescein biotin bound to streptavidin; type: binding; settings: bound to excess soluble streptavidin
Source text: Under certain circumstances, binding of fluorescent ligands to streptavidin is characterized by the quenching of fluorescence of bound relative to free ligands. Typically, this type of quenching referred to as “ostrich quenching” occurs when the fluorophore (e.g., fluorescein) moiety of a biotinylated ligand associates with the receptor pocket adjacent to the biotin-moiety bearing site. Such a method is described in the following reference: Buranda, T., Jones, G., Nolan, J., Keij, J., Lopez, G. P., and Sklar, L. A. (1999) Ligand Receptor Dynamics at Streptavidin Coated Particle Surfaces: A Flow Cytometric and Spectrofluorimetic Study J. Phys. Chem. B. 103, 3399-3410, the entire contents and disclosure of which is hereby incorporated by reference.
(§1) Ostrich quenching is dependent on the length and structure of the ligand. […] Addition of native biotin recovers the original intensity under diffusion-limited kinetics. The extent of quenching and recovery on beads depends on site occupancy of the fluorescein biotin. […] The five-fold increase in intensity was consistent with a result from a flow cytometry measurement (data not shown). […] The magnitude of n2 relative to n1 is likely due to the disruption of the packing of beads upon initial contact with the plug of sample. It is likely that such disruption can be minimized through optimization of bead packing and sample injection procedures.

[4] = molecular target: Texas-Red labeled M1 anti-FLAG monoclonal antibody (IgG); assay: competition: TR-M1 pre-equilibrated with thousand-fold excess soluble non-fluorescent FLAG peptide, then passed over bead-borne fluorescein FLAG peptide; FRET
[5] = molecular target: biotinylated and fluorescein-tagged 5-FLAG peptide on streptavidin-coated beads; assay: affinity micro-column of fluorescein FLAG peptide beads, FRET endpoints, sigmoidal dose-response curve
[6] = molecular target: biotinylated and fluorescein-tagged 5-FLAG peptide on streptavidin-coated beads; assay: affinity micro-column of fluorescein FLAG peptide beads, real-time FRET, kinetic model fit
[7] = molecular target: biotinylated and fluorescein-tagged 5-FLAG peptide on streptavidin-coated beads; assay: flow cytometry of bead-borne FLAG peptides incubated with TR-M1 mAbs, FRET quenching (FIG. 18)
[8] = molecular target: biotinylated and fluorescein-tagged 5-FLAG peptide on streptavidin-coated beads; assay: FRET quenching on 5-FLAG bearing beads, flow cytometry, buffer with Ca2+, sigmoidal analysis
[9] = molecular target: non-biotinylated fluorescent 5-FLAG peptide (soluble); assay: FRET titration of TR-M1 into fluorescent FLAG peptide in solution, spectrofluorimetry, 1 mM Ca2+
[10] = molecular target: biotinylated and fluorescein-tagged 5-FLAG peptide on streptavidin-coated beads; assay: FRET quenching on 5-FLAG bearing beads, flow cytometry, calcium-free buffer, sigmoidal analysis
[11] = molecular target: biotinylated and fluorescein-tagged 5-FLAG peptide on streptavidin-coated beads; assay: FRET quenching of 5-FLAG on beads by TR-M1 (FIG. 8)
[12] = molecular target: fluorescein biotin-bearing beads (Streptomyces avidinii, UniProt P22629); assay: Detection of native biotin via fluorescence unquenching of fluorescein biotin in affinity micro-column; type: binding; settings: 2 μL aliquot of 3 mM native biotin
Source text: Streptavidin coated beads bearing ≈1×10^6 fluorophores/bead were packed into the micro-channel.
as §1

Chain of streptavidin on 6.2 µm streptavidin-coated beads (P22629 37-163 limits assumed): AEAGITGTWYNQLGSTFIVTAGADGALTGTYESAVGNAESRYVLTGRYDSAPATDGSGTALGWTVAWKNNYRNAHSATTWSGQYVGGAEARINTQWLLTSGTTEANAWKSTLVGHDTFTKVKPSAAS

Molecule: O=C(CCCCCNC(=O)CCCC[C@@H]1SC[C@@H]2NC(=O)N[C@@H]21)NCCCCCNC(=S)Nc1ccc2c(c1)C(=O)OC21c2ccc(O)cc2Oc2cc(O)ccc21 [fluorescein biotin]
Kd [3]: ~0.5 nM | quenching of the fluorescence (streptavidin): > 90%

Molecule: O=C(O)CCCC[C@@H]1SC[C@@H]2NC(=O)N[C@@H]21 [native biotin, biotin]
increase in intensity of fluorescein biotin-bearing beads [12]: fivefold

Molecule: Biotinylated and fluorescein-tagged FLAG peptide (epitope DYKDDDDK) tethered to streptavidin-coated beads [5-FLAG]
Kd [3]: 0.3 nM and ~0.3 nM

Results, then the molecule that gave them:

Kd [1]: 0.3 nM
Molecule: biotinylated and fluorescein-tagged 5-FLAG peptide on streptavidin-coated beads

Kd [2]: 8 nM
Molecule: biotinylated anti-FLAG M2 IgG on streptavidin-coated beads (antibody)

FRET signal remaining with thousand fold excess of soluble peptide [4]: < 10%
Molecule: dark non-fluorescent FLAG peptide (soluble)

Kd [5]: 10 nM | Kd [6]: 13.3 nM | koff [6]: 0.0012 s⁻¹ | kon [6]: 90000 M⁻¹ s⁻¹ | Kd [7]: 4 nM | Kd [8]: 4 nM | Kd [9]: 9 nM | Kd [10]: 37 nM | quenching of peptide fluorescence at saturation [11]: > 60%
Molecule: Texas-Red labeled M1 anti-FLAG monoclonal antibody (IgG)
